Source: PMC4786117, “Human PIEZO1 Ion Channel Functions as a Split Protein” (PLoS ONE, 2016)

Target: T1, hPIEZO1 C-terminal segment (residues 1592-2521) with N-terminal GFP (human, UniProt Q92508 1592-2521)
T1 construct: PIEZO1, human, residues 1592-2521, second cistron (after the IRES element) of the bicistronic vector hPIEZO1 NtCt; the methods say amplified from amino acid 1591 to the end, the results print 1592 to 2251 and 1591-2251; C-terminus amplified from HekP1; inserted at a SpeI site after the GFP of pIRES2-EGFP, so GFP precedes the segment; also called Ct-EGFP; C-terminal fragment; source: HEK293, …
T1 sequence (looked up): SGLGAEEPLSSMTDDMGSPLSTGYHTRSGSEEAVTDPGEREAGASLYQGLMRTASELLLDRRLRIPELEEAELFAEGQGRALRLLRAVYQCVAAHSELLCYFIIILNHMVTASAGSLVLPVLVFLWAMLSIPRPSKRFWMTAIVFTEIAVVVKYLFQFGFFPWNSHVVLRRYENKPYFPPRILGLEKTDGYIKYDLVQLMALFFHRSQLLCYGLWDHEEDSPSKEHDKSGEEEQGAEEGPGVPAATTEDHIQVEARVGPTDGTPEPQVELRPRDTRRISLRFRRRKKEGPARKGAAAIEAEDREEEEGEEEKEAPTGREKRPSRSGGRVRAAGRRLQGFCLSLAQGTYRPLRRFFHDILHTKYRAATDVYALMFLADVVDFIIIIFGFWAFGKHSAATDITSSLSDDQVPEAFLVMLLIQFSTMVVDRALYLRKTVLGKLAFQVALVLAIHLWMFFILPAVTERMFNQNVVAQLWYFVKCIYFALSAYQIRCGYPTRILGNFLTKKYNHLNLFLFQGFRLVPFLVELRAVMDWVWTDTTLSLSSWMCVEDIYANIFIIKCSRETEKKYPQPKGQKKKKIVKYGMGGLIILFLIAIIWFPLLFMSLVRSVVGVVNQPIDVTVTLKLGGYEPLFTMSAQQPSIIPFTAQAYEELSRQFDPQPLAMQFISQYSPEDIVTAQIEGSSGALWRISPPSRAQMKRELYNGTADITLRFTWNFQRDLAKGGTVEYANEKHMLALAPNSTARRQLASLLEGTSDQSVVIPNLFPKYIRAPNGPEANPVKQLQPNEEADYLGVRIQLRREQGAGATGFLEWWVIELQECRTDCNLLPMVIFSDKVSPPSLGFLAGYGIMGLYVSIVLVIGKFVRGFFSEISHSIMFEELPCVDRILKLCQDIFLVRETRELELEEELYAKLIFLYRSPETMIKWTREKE
Assay: FRET or BRET; living HEK293 cells transfected with bicistronic vectors; EGFP and mCherry fusions; FRET ratio = 680 nm emission excited at 480 nm over 680 nm emission excited at 560 nm
Details: partners not purified

B1: hPIEZO1 N-terminal segment (residues 1-1591) with mCherry linked at its end (domain or fragment, human, UniProt Q92508 1-1591, looked up)
chain: MEPHVLGAVLYWLLLPCALLAACLLRFSGLSLVYLLFLLLLPWFPGPTRCGLQGHTGRLLRALLGLSLLFLVAHLALQICLHIVPRLDQLLGPSCSRWETLSRHIGVTRLDLKDIPNAIRLVAPDLGILVVSSVCLGICGRLARNTRQSPHPRELDDDERDVDASPTAGLQEAATLAPTRRSRLAARFRVTAHWLLVAAGRVLAVTLLALAGIAHPSALSSVYLLLFLALCTWWACHFPISTRGFSRLCVAVGCFGAGHLICLYCYQMPLAQALLPPAGIWARVLGLKDFVGPTNCSSPHALVLNTGLDWPVYASPGVLLLLCYATASLRKLRAYRPSGQRKEAAKGYEARELELAELDQWPQERESDQHVVPTAPDTEADNCIVHELTGQSSVLRRPVRPKRAEPREASPLHSLGHLIMDQSYVCALIAMMVWSITYHSWLTFVLLLWACLIWTVRSRHQLAMLCSPCILLYGMTLCCLRYVWAMDLRPELPTTLGPVSLRQLGLEHTRYPCLDLGAMLLYTLTFWLLLRQFVKEKLLKWAESPAALTEVTVADTEPTRTQTLLQSLGELVKGVYAKYWIYVCAGMFIVVSFAGRLVVYKIVYMFLFLLCLTLFQVYYSLWRKLLKAFWWLVVAYTMLVLIAVYTFQFQDFPAYWRNLTGFTDEQLGDLGLEQFSVSELFSSILVPGFFLLACILQLHYFHRPFMQLTDMEHVSLPGTRLPRWAHRQDAVSGTPLLREEQQEHQQQQQEEEEEEEDSRDEGLGVATPHQATQVPEGAAKWGLVAERLLELAAGFSDVLSRVQVFLRRLLELHVFKLVALYTVWVALKEVSVMNLLLVVLWAFALPYPRFRPMASCLSTVWTCVIIVCKMLYQLKVVNPQEYSSNCTEPFPNSTNLLPTEISQSLLYRGPVDPANWFGVRKGFPNLGYIQNHLQVLLLLVFEAIVYRRQEHYRRQHQLAPLPAQAVFASGTRQQLDQDLLGCLKYFINFFFYKFGLEICFLMAVNVIGQRMNFLVTLHGCWLVAILTRRHRQAIARLWPNYCLFLALFLLYQYLLCLGMPPALCIDYPWRWSRAVPMNSALIKWLYLPDFFRAPNSTNLISDFLLLLCASQQWQVFSAERTEEWQRMAGVNTDRLEPLRGEPNPVPNFIHCRSYLDMLKVAVFRYLFWLVLVVVFVTGATRISIFGLGYLLACFYLLLFGTALLQRDTRARLVLWDCLILYNVTVIISKNMLSLLACVFVEQMQTGFCWVIQLFSLVCTVKGYYDPKEMMDRDQDCLLPVEEAGIIWDSVCFFFLLLQRRVFLSHYYLHVRADLQATALLASRGFALYNAANLKSIDFHRRIEEKSLAQLKRQMERIRAKQEKHRQGRVDRSRPQDTLGPKDPGLEPGPDSPGGSSPPRRQWWRPWLDHATVIHSGDYFLFESDSEEEEEAVPEDPRPSAQSAFQLAYQAWVTNAQAVLRRRQQEQEQARQEQAGQLPTGGGPSQEVEPAEGPEEAAAGRSHVVQRVLSTAQFLWMLGQALVDELTRWLQEFTRHHGTMSDVLRAERYLLTQELLQGGEVHRGVLDQLYTSQAEATLPGPTEAPNAPSTVS
notes: PIEZO1, human, residues 1-1591, first cistron of the bicistronic vector hPIEZO1 NtCt; also called Nt-mCherry; N-terminal fragment; source: HEK293, transfected with the bicistronic plasmid hPIEZO1 NtCt, in living cells; not shown: mCherry, C-terminal, kept
- FRET ratio: 3.4
